Source: publication PMC9038204, “SNX27–Retromer directly binds ESCPE-1 to transfer cargo proteins during endosomal recycling” (PLoS Biology, 2022)

What was measured:
SNX27 = test: GFP trap co-immunoprecipitation of GFP-SNX1/SNX2 constructs from HEK-293T, quantitative western blot: SNX27; assay type: binding; settings: Fig 3F, S2B Fig; double aDLF mutants in HEK293T, GFP trap
Protocol: HeLa and HEK-293T cell lines were sourced from ATCC. Authentication was from the ATCC. Cells were grown in DMEM (Sigma-Aldrich) supplemented with 10% (v/v) FCS (Sigma-Aldrich) and penicillin/streptomycin (Gibco, USA) and grown under standard conditions. FuGENE HD (Promega, USA) was used for transient transfection of DNA according to the manufacturer’s instructions. Cycloheximide was used to prevent up-regulation of protein synthesis. In this case, cycloheximide (C7698; Sigma-Aldrich) at 10 μg/ml was added to the cells 48 hours after FuGENE transfection for the indicated time points. For the generation of CRISPR-Cas9 SNX27 knockout HeLa cells, HeLa cells were transfected with pX330 plasmid coding for the gRNA against the gene of interest together with a puromycin resistance–expressing plasmid. Cells were then subjected to puromycin selection for 24 hours. The pooled population of cells was subjected to lysis and western blotting to confirm the knockout. The VPS35 knockout clonal cell line used in this study was characterized previously. […]
For western blotting, cells were lysed in PBS with 1% (v/v) Triton X-100 and protease inhibitor cocktail. The protein concentration was determined with a BCA assay kit (Thermo Fisher Scientific, USA), and equal amounts were resolved on NuPAGE 4% to 12% precast gels (Invitrogen, USA). […]

[1] = system: FERM domain of human SNX27 (hSNX27FERM); test: ITC, hSNX27FERM titrated into mSNX1 proteins; assay type: binding; settings: 25°C
Protocol: Human SNX1 and SNX2 peptide sequences were synthesized by Genscript (USA). To obtain the peptide stock solutions at neutral pH, 100 mM Tris-HCl, pH 10.6 was used to dissolve the peptide to a final concentration of 8 mM. The peptides were SNX1_35-51 […], SNX135-51(D45K) […], SNX1_75-92 […], SNX2_16-33 […], SNX2_16-33(DLF/SSS) […], and SNX2_62-82 […].
All microcalorimetry experiments were conducted at 25°C using a PEAQ ITC (Malvern, UK) in 50 mM HEPES (pH 7.5), 200 mM NaCl, 5% glycerol, and 1 mM β-ME (ITC buffer). All proteins were purified by SEC using the same buffer prior to ITC experiments to avoid buffer mismatches. To measure binding of SNX27 to SNX1 proteins, 800 μM of hSNX27FERM was titrated into 20 μM of GST-mSNX1_1-139 or His-SNX1FL. For the binding of SNX1 and SNX2 peptides to SNX27, peptides were diluted 10-fold to 800 μM in ITC buffer peptides and titrated into 20 μM SNX27FL proteins containing the same 1:10 ratio of peptide buffer (100 mM Tris-HCl, pH 10.6). The competitive ITC experiments were carried out by titrating 800 μM SNX1_75-92 peptides into 20 μM proteins with 2-fold molar excess SNX2_16-33 peptide preincubated with SNX27 on ice for an hour. For ITC experiment using SNX1_75-92 against hSNX27 wild-type and single-site mutants, 600 μM SNX1_75-92 peptide was titrated into 20 μM hSNX27 proteins.
The ITC experiments were conducted with 1 injection of 0.4 μL followed by a series of 12 injections of 3.2 μL each with 180-second intervals and a stirring speed of 850 rpm. The heat exchange of interactions was obtained through integrating the observed peaks and background correction by subtracting the heats of dilution. Data were analyzed with Malvern software package by fitting and normalized data to a single-site binding model, yielding the thermodynamic parameters Kd, ΔH, ΔG, and −TΔS for all binding experiments. The stoichiometry was refined initially, and if the value was close to 1, then N was set to exactly 1.0 for calculation. All experiments were performed at least twice to guarantee reproducibility of the data.

[2] = pH 7.5, 800 μM hSNX27FERM into 20 μM mSNX1 protein

Molecule | SNX27 binding, in words (SNX27) | ΔG [1, 2] | ΔH [1, 2] | Kd ([1]; 50 mM HEPES pH 7.5, 200 mM NaCl, 5% glycerol, 1 mM β-ME, 800 μM hSNX27FERM titrated into 20 μM mSNX1 protein, single-site fit, mean of at least 2 experiments) | -TΔS [1, 2]
GFP-SNX2(D26K,D72K): mutant targeting both aDLF motifs in SNX2 (protein, UniProt O60749 1-519, looked up, variant D26K D72K, GFP tag) Sorting nexin-2: MAAEREPPPLGDGKPTDFEDLEDGEKLFTSTVSTLESSPSSPEPASLPAEDISANSNGPKPTEVVLDDDREKLFAEATEEVSLDSPEREPILSSEPSPAVTPVTPTTLIAPRIESKSMSAPVIFDRSREEIEEEANGDIFDIEIGVSDPEKVGDGMNAYMAYRVTTKTSLSMFSKSEFSVKRRFSDFLGLHSKLASKYLHVGYIVPPAPEKSIVGMTKVKVGKEDSSSTEFVEKRRAALERYLQRTVKHPTLLQDPDLRQFLESSELPRAVNTQALSGAGILRMVNKAADAVNKMTIKMNESDAWFEEKQQQFENLDQQLRKLHVSVEALVCHRKELSANTAAFAKSAAMLGNSEDHTALSRALSQLAEVEEKIDQLHQEQAFADFYMFSELLSDYIRLIAAVKGVFDHRMKCWQKWEDAQITLLKKREAEAKMMVANKPDKIQQAKNEIREWEAKVQQGERDFEQISKTIRKEVGRFEKERVKDFKTVIIKYLESLVQTQQQLIKYWEAFLPEAKAIA | near undetectable levels |  |  |  | 
mSNX1_1-139: recombinant truncated mSNX1 containing residues 1 to 139, GST fusion protein (protein, left off: GST, N-terminal, kept, recombinant truncated mSNX1 containing residues 1 to 139, GST fusion protein) MASGGGGCSASERLPPPFPGMDPESEGAAGASEPEAGDSDTEGEDIFTGAAAATKPQSPKKTTSLFPIKNGSKENGIHEDQDQEPQDLFADATVELSLDSTQNNQKTMPGKTLTSHSPQEATNSPKPQPSYEELEEEEQ |  | -6.02 ± 0.01 kcal/mol | -6.93 ± 0.01 kcal/mol |  | 
mSNX1FL: recombinant full-length mouse SNX1 with an amino-terminal His-tag (protein, left off: His-tag, N-terminal, kept) MASGGGGCSASERLPPPFPGMDPESEGAAGASEPEAGDSDTEGEDIFTGAAAATKPQSPKKTTSLFPIKNGSKENGIHEDQDQEPQDLFADATVELSLDSTQNNQKTMPGKTLTSHSPQEATNSPKPQPSYEELEEEEQEDQFDLTVGITDPEKIGDGMNAYVAYKVTTQTSLPMFRSRQFAVKRRFSDFLGLYEKLSEKHSQNGFIVPPPPEKSLIGMTKVKVGKEDSSSAEFLEKRRAALERYLQRIVNHPTMLQDPDVREFLEKEELPRAVGTQALSGAGLLKMFNKATDAVSKMTIKMNESDIWFEEKLQEVECEEQRLRKLHAVVETLVNHRKELALNTALFAKSLAMLGSSEDNTALSRALSQLAEVEEKIEQLHQEQANNDSFLLAELLSDYIRLLAIVRAAFDQRMKTWQRWQDAQATLQKKRESEARLLWANKPDKLQQAKDEITEWESRVTQYERDFERISTVVRKEVTRFEKEKSKDFKNHVMKYLETLLHSQQQLAKYWEAFLPEAKAIS |  | -5.99 ± 0.02 kcal/mol | -6.23 ± 3.11 kcal/mol | 41 µM | 0.24 ± 3.10 kcal/mol
